From patent US20220281965A1 (AstraZeneca / MedImmune, published 2022)

T1: mature recombinant human GDF-15 with an N-terminal Flag and His tag, biotinylated (human, UniProt Q99988 197-308, chemically biotinylated with EZ link Sulfo-NHS-LC-Biotin, sites not stated)
T1 construct: not shown: N-terminal Flag and His tags
T1 sequence: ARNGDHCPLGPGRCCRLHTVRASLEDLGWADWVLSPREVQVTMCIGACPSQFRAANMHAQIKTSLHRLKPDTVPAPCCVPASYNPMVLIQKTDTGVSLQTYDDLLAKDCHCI

T2: mature recombinant human GDF-15 H202D variant with an N-terminal Flag and His tag, biotinylated (human, UniProt Q99988 197-308, chemically biotinylated with EZ link Sulfo-NHS-LC-Biotin, sites not stated)
T2 construct: also called Human H202D; not shown: N-terminal Flag and His tags
T2 chain: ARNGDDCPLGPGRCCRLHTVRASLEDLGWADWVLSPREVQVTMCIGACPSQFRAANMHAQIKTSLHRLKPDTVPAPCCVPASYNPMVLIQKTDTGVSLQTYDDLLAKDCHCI

T3: mature recombinant cynomolgus GDF-15 with an N-terminal Flag and His tag, biotinylated (cynomolgus, UniProt G7PWZ3 197-308, chemically biotinylated with EZ link Sulfo-NHS-LC-Biotin, sites not stated)
T3 construct: not shown: N-terminal Flag and His tags
T3 sequence: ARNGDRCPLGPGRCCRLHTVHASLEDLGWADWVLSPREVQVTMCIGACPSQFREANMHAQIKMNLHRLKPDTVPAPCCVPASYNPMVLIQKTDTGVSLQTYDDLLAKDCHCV

T4: mature recombinant mouse GDF-15 with Flag and His tags (mouse, UniProt Q9Z0J7 189-303)
T4 construct: also called Flag tagged mouse GDF-15; not shown: FLAG and poly-His tags immediately C-terminal to the furin cleavage site (N-terminal on the mature protein)
T4 sequence: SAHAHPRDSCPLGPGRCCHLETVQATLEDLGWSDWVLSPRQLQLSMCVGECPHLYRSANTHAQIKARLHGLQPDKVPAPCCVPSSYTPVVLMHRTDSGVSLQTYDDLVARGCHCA

T5: biotinylated cynomolgus GDF-15 (cynomolgus, UniProt G7PWZ3 197-308, biotinylated, sites not stated)
T5 construct: also called Cyno GDF-15
T5 sequence: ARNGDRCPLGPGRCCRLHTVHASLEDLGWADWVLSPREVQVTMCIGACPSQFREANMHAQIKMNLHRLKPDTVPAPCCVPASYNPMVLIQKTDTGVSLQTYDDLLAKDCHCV

T6: mouse GDF-15 (mouse, UniProt Q9Z0J7 189-303)
T6 construct: also called mGDF-15
T6 sequence: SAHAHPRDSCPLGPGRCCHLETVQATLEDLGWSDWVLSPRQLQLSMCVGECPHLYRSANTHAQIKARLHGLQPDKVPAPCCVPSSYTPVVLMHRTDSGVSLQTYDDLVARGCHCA

T7: mature human GDF-15 (human, UniProt Q99988 197-308)
T7 construct: Homodimer; also called hGDF-15; recombinant hu-GDF15
T7 sequence: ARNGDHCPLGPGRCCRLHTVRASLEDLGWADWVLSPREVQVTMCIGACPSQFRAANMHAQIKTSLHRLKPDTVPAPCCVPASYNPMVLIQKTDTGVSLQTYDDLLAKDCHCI


Assays:
[1] = target: T1, mature recombinant human GDF-15 with an …; experiment: SPR Biacore 8K, 25 C, biotinylated GDF-15 on streptavidin C1 chip, Fab as analyte
Description: (§1) The experiments were carried out using mature recombinant human GDF-15, human GDF-15 H202D variant, mouse GDF-15, and cynomolgus GDF-15 with an N-terminal Flag and His tag. All species were chemically biotinylated using EZ link Sulfo-NHS-LC-Biotin (Thermo).
(§2) Streptavidin was covalently immobilized to a C1 chip surface using standard amine coupling techniques at a concentration of 4 μg/ml in 10 mM Sodium acetate pH 4.5. Recombinant biotinylated GDF-15 species were titrated onto the streptavidin chip surface in HBS-EP+ buffer to enable Fab binding.
(§3) Multiple buffer-only injections were made under the same conditions to allow for double reference subtraction of the final sensorgram sets, which were analyzed using Biacore 8K Evaluation Software. The chip surface was fully regenerated with pulses of 50 mM NaOH.

[2] = target: T2, mature recombinant human GDF-15 H202D …; experiment: as above
Description: as §1, §2, §3

[3] = target: T3, mature recombinant cynomolgus GDF-15 …; experiment: as above
Description: as §1, §2, §3

[4] = target: T4, mature recombinant mouse GDF-15 with …; experiment: as above
Description: as §1, §2, §3

[5] = target: T5, biotinylated cynomolgus GDF-15; experiment: HTRF binding assay, biotinylated antigen, titration of antibody
From the text: (§4) Supernatants generated from the immunizations with human GDF-15 and purified IgGs were screened to identify IgGs with specific binding to human, cynomolgus, or mouse GDF-15. The HTRF (Homogeneous Time Resolved Fluorescence) assay is based on detection of a measurable FRET signal upon binding of a titration of test antibody to biotinylated human H202D GDF-15 variant, cynomolgus GDF-15 and mouse GDF-15. Europium cryptate (EuK) labelled Streptavidin and anti-human IgG XL665 (Cis Bio) were used as secondary detection reagents serving as energy donor and acceptor respectively. In the absence of test antibody binding, there is no detectable FRET fluorescence. When test antibody binds to GDF-15, the resulting physical proximity between the secondary reagent donor/acceptor pair results in FRET. FRET was measured ratiometrically [665 nm (acceptor)/620 nm (donor)] on an Envision plate reader, and data plotted using PRISM 6® software (Graphpad).

mouse GDF-15 = target: T6, mouse GDF-15; experiment: as above
From the text: as §4

mature human GDF-15 = target: T7, mature human GDF-15; experiment: HTRF epitope competition; competitor DyLight 650 labelled Antibody A; Europium labelled human GDF-15
From the text: Antibodies from the immunizations with human GDF-15, in the form of crude supernatants from the immunization or in the form of purified IgGs, were chosen on the basis that they bind and compete with an epitope recognized by a control anti-GDF-15 antibody “Antibody A”. A biochemical epitope competition format was applied using an HTRF epitope competition assay that measured the binding of DyLight 650 labelled Antibody A to Europium labelled human GDF-15 (Prospec). In the absence of Antibody A binding, there is no detectable FRET fluorescence. When Antibody A binds to GDF-15, the resulting physical proximity between the secondary reagent donor/acceptor pair results in FRET. Competition with an antibody that recognizes the same or similar epitope will result in a dose dependent reduction of the FRET signal. FRET was measured ratiometrically [665 nm (acceptor)/620 nm (donor)] on an Envision plate reader, and IC₅₀ values were determined by curve fitting the data to a four parameter logistic equation using PRISM 6® software (Graphpad).

Row | Binder | Kd [1] [nM] | koff [1] [s⁻¹] | kon [1] [M⁻¹ s⁻¹] | Kd [2] [nM] | koff [2] [s⁻¹] | kon [2] [M⁻¹ s⁻¹] | Kd [3] [nM] | koff [3] [s⁻¹] | kon [3] [M⁻¹ s⁻¹] | Kd [4] [nM] | koff [4] [s⁻¹] | kon [4] [M⁻¹ s⁻¹] | binding result [5] | binding result (mouse GDF-15) | IC50 (mature human GDF-15) [nM]
1 | AB1170241 Fab (Fab, V domains shown, Fab of the humanized antibody, expressed as in Spooner et al. 2015) VH: QVQLVQSGSELKKPGASVKVSCKASGYTFTDYNMDWIRQSPGKGLEWIGDINPNQGGTFYNQKFKDRATLTVDKSTSTAYMELRSLRSDDTAVYYCAREEKLYFGLMDYWGQGTTVTVSS VL: DIQMTQSPSSLSASVGDRVTITCRASENIYSYLAWYQQKPGKAPKLLVYNAKTLAEGVPSRFSGSGSGIDFTLTISSLQPEDFATYYCQHQYGSPPTFGQGTKLEIK | 0.159 | 0.000663 | 4.18e+06 | 0.156 | 0.000696 | 4.45e+06 | 0.476 | 0.00279 | 5.87e+06 | 107 | 0.329 | 3.07e+06 |  |  | 
2 | AB1170243 Fab (Fab, V domains shown, Fab of the humanized antibody, expressed as in Spooner et al. 2015) VH: QVQLVQSGSELKKPGASVKVSCKASGYTFTDYNMDWIRQSPGKGLEWIGDINPNNGGTFYNQKFKDRATLTVDKSTSTAYMELRSLRSDDTAVYYCAREEKLYFGLMDYWGQGTTVTVSS VL: DIQMTQSPSSLSASVGDRVTITCRASENIYSYLAWYQQKPGKAPKLLVYNAKTLAEGVPSRFSGSGSGIDFTLTISSLQPEDFATYYCQHQYGSPPTFGQGTKLEIK | 0.09 | 0.000422 | 4.74e+06 | 0.09 | 0.000425 | 4.85e+06 | 0.273 | 0.00169 | 6.23e+06 | 75 | 0.281 | 3.9e+06 |  |  | 
3 | AB1170244 Fab (Fab, V domains shown, Fab of the humanized antibody, expressed as in Spooner et al. 2015) VH: EVQLVESGGGLVKPGGSLRLSCAASGFTFSSYAMSWVRQAPGKGLEWVAYISSGGDNIYYADTVKGRFTISRDNSKNTLYLQMNSLKTEDTAVYYCTRALVENAYFDYWGQGTTVTVSS VL: DSVLTQSPDSLAVSLGERATINCRASKSVSTSTYSYMHWYQQKPGQPPKLLIKYASYLESGVPDRFSGSGSGTDFTLKISRVEAEDVGVYYCQHSREFPWTFGGGTKVEIK | 2.35 | 0.00558 | 2.39e+06 | 2.39 | 0.00595 | 2.49e+06 | 5.47 | 0.0145 | 2.64e+06 | 916 | 0.54 | 591000 |  |  | 
4 | AB1170245 Fab (Fab, V domains shown, Fab of the humanized antibody, expressed as in Spooner et al. 2015) VH: EVQLVESGGGLVKPGGSLRLSCAASGFTFSSYAMSWVRQAPGKGLEWVAYISSGGDYIYYADTVKGRFTISRDNSKNTLYLQMNSLKTEDTAVYYCTRALVDNAYFDYWGQGTTVTVSS VL: DIVLTQSPDSLAVSLGERATINCRASKSVSTSSYSYMHWYQQKPGQPPKLLIKYASYLEFGVPSRFSGSGSGTDFTLTISSLQPEDVATYYCQHSREFPWTFGGGTKVEIK | 10.2 | 0.0315 | 3.1e+06 | 10.5 | 0.0321 | 3.07e+06 | 20.9 | 0.0712 | 3.42e+06 | 2400 | 1.5 | 643000 |  |  | 
5 | AB1170074 (antibody, V domains shown) VH: EVQLQQSGRELVKPGASVKMSCKASGYTFTNYVMHWVKQKPGQGLEWIGYINPHNDGTEYSEKFKGKATLTSDKSSSTAYMELSSLTSEDSAVYYCARWYYDGGYFAYWGQGTLVTVSA VL: DIVMTQSPATLSVTPGDRVSLSCRASQSISDYLHWYQQKSHESPRLLIKYASQSISGIPSRFSGSGSGSDFTLSINSVEPEDVGVYYCQNGHSFPLTFGAGTKLELK |  |  |  |  |  |  |  |  |  |  |  |  | binds | binds | 1.37
